We go through 167 variants from the RNAGym collection of RNA variant scans (doi:10.7554/elife.80360).

Sequences and labels used below:
B1: Hammerhead Ribozyme (parent)
chain: ACCGGAUGUGCUUUCCGGUCUGAUGAGUCCGUGAGGACGAAACAG

In this series the parent is B1. Briefly: self-cleavage, relative activity (ratio to wild type); higher = more cleavage; co-transcriptional.
Take U9G G17A: the self-cleavage was 0.456.

On to U9G G17U, for which the self-cleavage turned out to be 0.316.

For U9G G17C, the self-cleavage was determined as 0.32. On to G10A G22A, for which the self-cleavage was determined as 0.352. In the case of G10A G22C, the self-cleavage is 0.32. For the variant G10A G22U, the self-cleavage stood at 0.319. For the variant U9G G25C, the self-cleavage came to 0.383. Consider U9G G25U, for which the self-cleavage was found to be 0.242. Under U9G G25A stands 0.205. Under G10A C15U stands 0.919; under G10A C15G, 0.899.

In the case of G10A C15A, the self-cleavage is 0.927. Under G10A G25C stands 0.362; under G10A G25U, 0.345; under G10A G25A, 0.365.

With G10U A44G, the self-cleavage was 1.57. For the variant G10U A44C, the self-cleavage stood at 0.534. Regarding G10U A44U, the self-cleavage was 0.686.

Take U9G C43G: the self-cleavage was 0.455.

On to U9G C43U, for which the self-cleavage came to 0.339.

In the case of U9G C43A, the self-cleavage worked out at 0.271. In the case of G10C G39U, the self-cleavage turned out to be 0.307. Take G10C G39A: the self-cleavage came to 0.368. Turning to G10C G39C, the self-cleavage stood at 0.324. With G10A G39C, the self-cleavage worked out at 0.45. Under G10A G39U stands 0.401; under G10A G39A, 0.373; under G10C U24A, 0.811. As for G10C U24G, the self-cleavage was found to be 1.06. As for G10C U24C, the self-cleavage is 0.853. Regarding G10C G17A, the self-cleavage is 0.926. G10C G17C: the self-cleavage was 0.614. As for G10C G17U, the self-cleavage was found to be 0.932.

Regarding G10U A37G, the self-cleavage was determined as 0.877. Regarding G10U A37U, the self-cleavage came to 0.768. For G10U A37C, the self-cleavage amounted to 0.934. Regarding G10A U21C, the self-cleavage was determined as 0.815.

As for G10A U21A, the self-cleavage came to 0.588. For the variant G10A U21G, the self-cleavage amounted to 0.462. For the variant G10A C43G, the self-cleavage is 0.406.

For G10A C43A, the self-cleavage stood at 0.295. Regarding G10A C43U, the self-cleavage came out at 0.605.

Take G10C A34U: the self-cleavage came out at 0.934. Under G10C A34C stands 0.424; under G10C A34G, 0.841; under U9G G27C, 0.455. Under U9G G27U stands 0.329; under U9G G27A, 0.449. With G10C G27A, the self-cleavage came out at 0.887. As to G10C G27C, the self-cleavage worked out at 0.994.

Turning to G10C G27U, the self-cleavage amounted to 0.555. Turning to G10C C38U, the self-cleavage amounted to 1.16. Turning to G10C C38G, the self-cleavage was found to be 0.582.

As for G10C C38A, the self-cleavage amounted to 0.79. For the variant G10C A41U, the self-cleavage was 0.358. For G10C A41C the value was 0.299; for G10C A41G, 0.392. As to G10U C16A, the self-cleavage stood at 1.06. For the variant G10U C16U, the self-cleavage is 1.17. Regarding G10U C16G, the self-cleavage was 1.01. For U9G G22A, the self-cleavage is 0.321. U9G G22U: the self-cleavage was 0.358. For U9G G22C the value was 0.399; for G10A A42U, 0.38; for G10A A42C, 0.406. Turning to G10A A42G, the self-cleavage came out at 0.288.

As to G10A A34U, the self-cleavage turned out to be 0.919. As to G10A A34C, the self-cleavage worked out at 1.2. Turning to G10A A34G, the self-cleavage was determined as 0.836. In the case of G10C C15A, the self-cleavage worked out at 0.591. For G10C C15U the value was 1.01; for G10C C15G, 0.524; for G10U A26U, 0.873.

As for G10U A26C, the self-cleavage was determined as 0.439. As for G10U A26G, the self-cleavage amounted to 0.317. On to G10C A26U, for which the self-cleavage worked out at 0.851.

In the case of G10C A26G, the self-cleavage was determined as 0.304.

Turning to G10C A26C, the self-cleavage was 0.447. Under G10A C29G stands 0.853; under G10A C29A, 0.654. Take G10A C29U: the self-cleavage was found to be 1.17. For G10C A42U the value was 0.277. With G10C A42G, the self-cleavage stood at 0.278. For G10C A42C, the self-cleavage is 0.34. For G10A A23C, the self-cleavage came out at 0.375. In the case of G10A A23G, the self-cleavage was 0.34. With G10A A23U, the self-cleavage is 0.33. Turning to U9G U24C, the self-cleavage is 0.919. Take U9G U24G: the self-cleavage was 0.671. As for U9G U24A, the self-cleavage was determined as 0.928. On to G10U A41G, for which the self-cleavage came to 0.372. As to G10U A41C, the self-cleavage was 0.422. As to G10U A41U, the self-cleavage is 0.358. As for G10U C38U, the self-cleavage was 1.09. G10U C38A: the self-cleavage was 0.645.

In the case of G10U C38G, the self-cleavage was 0.848. Take G10A A44U: the self-cleavage worked out at 0.741. As to G10A A44C, the self-cleavage was determined as 0.517. As to G10A A44G, the self-cleavage was 1.71.

For the variant G10A U14C, the self-cleavage came to 0.97. As to G10A U14A, the self-cleavage is 1.21. G10A U14G: the self-cleavage amounted to 1.04. Regarding G10U C11G, the self-cleavage is 1.2.

G10U C11A: the self-cleavage is 1.25. Consider G10U C11U, for which the self-cleavage was 1.14. Regarding G10A G45C, the self-cleavage was 0.93. Turning to G10A G45A, the self-cleavage amounted to 0.9. Under G10A G45U stands 0.767; under G10A G27C, 0.701.

G10A G27U: the self-cleavage is 0.431. Take G10A G27A: the self-cleavage amounted to 0.94. Consider G10C C30A, for which the self-cleavage came out at 0.989.

G10C C30U: the self-cleavage was found to be 1.28. With G10C C30G, the self-cleavage turned out to be 0.675.

Turning to G10A C20U, the self-cleavage worked out at 0.543. For G10A C20A, the self-cleavage turned out to be 0.451.

Consider G10A C20G, for which the self-cleavage amounted to 0.303.

Consider G10C G31A, for which the self-cleavage was found to be 1.25. Under G10C G31C stands 0.704; under G10C G31U, 1.19. For G10C G33A, the self-cleavage was 1.14. G10C G33U: the self-cleavage stood at 0.934. As to G10C G33C, the self-cleavage was 0.937. Consider U9G G36A, for which the self-cleavage is 0.57. U9G G36C: the self-cleavage stood at 0.593. For U9G G36U the value was 0.569; for G10U C29G, 0.621; for G10U C29A, 0.658. With G10U C29U, the self-cleavage was 0.94. For G10A G36U, the self-cleavage is 0.632. On to G10A G36A, for which the self-cleavage came out at 0.742. As to G10A G36C, the self-cleavage worked out at 0.843.

In the case of G10A G18C, the self-cleavage turned out to be 0.615. As to G10A G18U, the self-cleavage is 1.13. For the variant G10A G18A, the self-cleavage worked out at 0.943.

As for G10U A42C, the self-cleavage was 0.45. On to G10U A42U, for which the self-cleavage came to 0.304. For G10U A42G, the self-cleavage came to 0.344. Under G10C U21G stands 0.414; under G10C U21C, 0.673; under G10C U21A, 0.533. Under G10A U19C stands 0.675.

Regarding G10A U19G, the self-cleavage amounted to 0.464. As to G10A U19A, the self-cleavage came out at 0.347. Under G10C C11U stands 1.18; under G10C C11G, 1.17. As to G10C C11A, the self-cleavage was 1.11. Under U9G G33A stands 0.988; under U9G G33C, 0.78. Regarding U9G G33U, the self-cleavage turned out to be 0.788.

For the variant G10A G17A, the self-cleavage was determined as 0.81. For G10A G17U, the self-cleavage amounted to 0.986.

As for G10A G17C, the self-cleavage amounted to 0.61.

Turning to U9G C38A, the self-cleavage amounted to 0.671. For U9G C38U, the self-cleavage came to 0.876. For the variant U9G C38G, the self-cleavage is 0.486. Under U9G G31C stands 0.754. As for U9G G31U, the self-cleavage came out at 0.51. As to U9G G31A, the self-cleavage is 1.14. For G10U C43A the value was 0.354.

As to G10U C43G, the self-cleavage is 0.405. For G10A G35A, the self-cleavage worked out at 0.853. Under G10A G35U stands 0.925; under G10A G35C, 0.763; under G10C A37G, 0.958. Take G10C A37C: the self-cleavage turned out to be 1.21.

In the case of G10C A37U, the self-cleavage amounted to 0.576.
